Measurements: patent US20170166895

Experiments:
[1] = biological target: T1, Complement component 3 (C3) (Homo sapiens) (UniProt P01024+P01024); assay: inhibition; details: P = NapdU (all U), 3'-3' idT, hemolysis, 20 nM C3, GVB++, 37 C
[2] = biological target: T1, Complement component 3 (C3) (Homo sapiens); assay: filter; details: all U = NapdU, 3'-3' idT, SB18T0.01, 37C

T1 sequence (P01024 23-667, chain 1 of 2): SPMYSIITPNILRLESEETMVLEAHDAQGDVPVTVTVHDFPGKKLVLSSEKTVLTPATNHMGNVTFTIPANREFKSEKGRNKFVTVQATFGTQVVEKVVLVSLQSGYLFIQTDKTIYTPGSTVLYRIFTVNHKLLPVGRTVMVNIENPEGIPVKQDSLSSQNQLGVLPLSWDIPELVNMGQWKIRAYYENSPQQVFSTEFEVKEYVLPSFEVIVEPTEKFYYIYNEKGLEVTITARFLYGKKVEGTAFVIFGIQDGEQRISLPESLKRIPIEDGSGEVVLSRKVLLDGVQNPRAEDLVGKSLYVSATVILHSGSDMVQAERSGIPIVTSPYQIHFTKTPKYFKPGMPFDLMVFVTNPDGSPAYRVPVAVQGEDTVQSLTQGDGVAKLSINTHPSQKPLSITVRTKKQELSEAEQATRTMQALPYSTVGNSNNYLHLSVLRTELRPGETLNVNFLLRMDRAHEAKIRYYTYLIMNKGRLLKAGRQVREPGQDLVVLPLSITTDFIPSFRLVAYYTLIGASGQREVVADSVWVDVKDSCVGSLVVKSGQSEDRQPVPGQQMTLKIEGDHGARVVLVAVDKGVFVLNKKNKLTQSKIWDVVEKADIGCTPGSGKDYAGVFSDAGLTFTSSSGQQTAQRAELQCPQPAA
T1 sequence (P01024 672-1663, chain 2 of 2): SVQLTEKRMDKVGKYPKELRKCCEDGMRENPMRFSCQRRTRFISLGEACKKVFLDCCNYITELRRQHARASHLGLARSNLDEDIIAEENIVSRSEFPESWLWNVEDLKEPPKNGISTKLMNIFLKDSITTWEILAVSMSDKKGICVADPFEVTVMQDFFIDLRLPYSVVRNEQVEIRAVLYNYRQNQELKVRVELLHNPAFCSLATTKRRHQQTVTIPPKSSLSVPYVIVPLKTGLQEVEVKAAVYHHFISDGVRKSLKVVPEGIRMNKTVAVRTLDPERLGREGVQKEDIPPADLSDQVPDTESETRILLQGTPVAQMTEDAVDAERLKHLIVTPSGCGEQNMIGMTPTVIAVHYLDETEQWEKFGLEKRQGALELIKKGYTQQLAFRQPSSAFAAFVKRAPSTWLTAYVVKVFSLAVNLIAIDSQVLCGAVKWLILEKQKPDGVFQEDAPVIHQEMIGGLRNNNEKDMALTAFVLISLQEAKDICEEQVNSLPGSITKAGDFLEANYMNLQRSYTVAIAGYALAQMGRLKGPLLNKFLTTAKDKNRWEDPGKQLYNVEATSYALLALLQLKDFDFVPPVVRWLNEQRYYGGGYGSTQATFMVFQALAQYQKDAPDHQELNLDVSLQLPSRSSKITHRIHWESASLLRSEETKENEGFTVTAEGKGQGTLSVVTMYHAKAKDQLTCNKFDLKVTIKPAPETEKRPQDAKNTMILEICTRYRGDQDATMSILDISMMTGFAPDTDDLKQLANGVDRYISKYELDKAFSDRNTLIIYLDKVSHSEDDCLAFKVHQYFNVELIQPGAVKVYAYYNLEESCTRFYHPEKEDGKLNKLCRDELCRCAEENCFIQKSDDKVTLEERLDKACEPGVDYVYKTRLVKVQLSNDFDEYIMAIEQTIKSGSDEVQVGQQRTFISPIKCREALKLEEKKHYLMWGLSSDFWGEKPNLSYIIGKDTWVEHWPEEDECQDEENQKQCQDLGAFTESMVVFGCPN

| Sequence | IC50 ([1]; 2'-OMe at 1,2,3,5,7,9,10,13,19,20,22,23,24,25,26,27,28, C3a release in 34% serum IC50 3 uM) [nM] | Kd ([2]; 2'-OMe at 1,2,3,5,7,9,10,13,19,20,22-28) [nM] | IC50 [1] [nM] | Kd [2] [nM] |
| --- | --- | --- | --- | --- |
| CGGUGACUCAAUAGUCCGUACGUUCCCG [8491-94_97] | 15.6 | 0.0549 | – | – |
| CCGGUGACUCAAUAGUCCGUACGUUCCCG [8491-94_27] | – | – | 24.6 | 0.0658 |
| CCGGUGACUCAAUAGUCCGUACGUUCCCGG [8491-94_26] | – | – | 15.1 | 0.0511 |
| CGGUGACUCAAUAGUCCGUACGUUCCCG [8491-94_53] | – | – | 17.1 | 0.0334 |
